System: Escherichia coli TOP10
Experiment: shrunken log2 fold change of peptide-encoding DNA abundance (4.5 h post-induction vs induction); higher = less antimicrobial activity (less host growth inhibition)
Conditions: time post-induction: 4.5 h; library: site-saturation at positions 5, 18, 19, 20
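Note: peptides expressed intracellularly from a pBAD plasmid library in pooled LB shake-flask culture, induced with 0.3% L-arabinose, DNA abundance read by NGS, three biological replicates, DESeq2 with apeglm shrinkage.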

| Sequence | shrunken log2 fold change |
| --- | --- |
| RRIRPRPPRLPRPRPRPKKWPRP | -0.0589 |
| RRIRHRPPRLPRPRPRPNRFPRP | -0.00088 |
| RRIRARPPRLPRPRPRPLDTPRP | 0.39 |
| RRIRERPPRLPRPRPRPANSPRP | -0.0581 |
| RRIRNRPPRLPRPRPRPQSFPRP | -0.0341 |
| RRIRNRPPRLPRPRPRPTPFPRP | -0.07 |
| RRIRKRPPRLPRPRPRPMWEPRP | 0.214 |
| RRIRPRPPRLPRPRPRPECNPRP | -0.0298 |
| RRIRRRPPRLPRPRPRPVFDPRP | 0.348 |
| RRIRARPPRLPRPRPRPGQKPRP | -0.0844 |
| RRIRERPPRLPRPRPRPDTAPRP | -0.131 |
| RRIRTRPPRLPRPRPRPIHFPRP | -0.00174 |
| RRIRGRPPRLPRPRPRPIYAPRP | 0.14 |
| RRIRYRPPRLPRPRPRPAGEPRP | -0.148 |
| RRIRSRPPRLPRPRPRPCEMPRP | 0.0253 |
| RRIRNRPPRLPRPRPRPNETPRP | -0.0424 |
| RRIRLRPPRLPRPRPRPTMFPRP | -0.0861 |
| RRIRIRPPRLPRPRPRPDAFPRP | -0.15 |
| RRIRIRPPRLPRPRPRPEWKPRP | 0.0442 |
| RRIRPRPPRLPRPRPRPKNTPRP | -0.218 |
| RRIRFRPPRLPRPRPRPDIRPRP | 0.0306 |
| RRIRCRPPRLPRPRPRPNPVPRP | -0.209 |
| RRIRPRPPRLPRPRPRPYALPRP | -1.08 |
| RRIRIRPPRLPRPRPRPTYRPRP | -0.0791 |
| RRIRWRPPRLPRPRPRPFYVPRP | -0.348 |

| Sequence | shrunken log2 fold change |
| --- | --- |
| RRIRWRPPRLPRPRPRPDKLPRP | 0.161 |
| RRIRERPPRLPRPRPRPCFAPRP | 0.0529 |
| RRIRIRPPRLPRPRPRPSTRPRP | -0.54 |
| RRIRDRPPRLPRPRPRPYNRPRP | -0.361 |
| RRIRERPPRLPRPRPRPLKDPRP | -0.0646 |
| RRIRQRPPRLPRPRPRPACCPRP | 0.162 |
| RRIRTRPPRLPRPRPRPDNGPRP | -0.225 |
| RRIRLRPPRLPRPRPRPMYTPRP | -0.119 |
| RRIRMRPPRLPRPRPRPHCNPRP | 0.043 |
| RRIRERPPRLPRPRPRPGNRPRP | -0.0677 |
| RRIRHRPPRLPRPRPRPFIEPRP | -0.276 |
| RRIRSRPPRLPRPRPRPLILPRP | -0.628 |
| RRIRRRPPRLPRPRPRPYIHPRP | -0.794 |
| RRIRGRPPRLPRPRPRPQSWPRP | 0.445 |
| RRIRNRPPRLPRPRPRPKDYPRP | -0.232 |
| RRIRFRPPRLPRPRPRPGGDPRP | 0.37 |
| RRIRERPPRLPRPRPRPCSTPRP | -0.702 |
| RRIRNRPPRLPRPRPRPHKLPRP | -0.411 |
| RRIRLRPPRLPRPRPRPPMMPRP | -0.149 |
| RRIRRRPPRLPRPRPRPPMYPRP | 0.0631 |
| RRIRARPPRLPRPRPRPCICPRP | -0.0352 |
| RRIRIRPPRLPRPRPRPHYHPRP | -1.47 |
| RRIRQRPPRLPRPRPRPSSPPRP | 0.167 |
| RRIRNRPPRLPRPRPRPDHDPRP | -0.224 |
| RRIRDRPPRLPRPRPRPGEHPRP | 0.0372 |

| Sequence | shrunken log2 fold change |
| --- | --- |
| RRIRFRPPRLPRPRPRPNKNPRP | -0.384 |
| RRIRRRPPRLPRPRPRPYYNPRP | -0.807 |
| RRIRWRPPRLPRPRPRPSFWPRP | 0.372 |
| RRIRNRPPRLPRPRPRPTGLPRP | 0.0817 |
| RRIRTRPPRLPRPRPRPENAPRP | -0.49 |
| RRIRTRPPRLPRPRPRPNWNPRP | -0.335 |
| RRIRVRPPRLPRPRPRPESAPRP | 0.522 |
| RRIRSRPPRLPRPRPRPKQHPRP | 0.235 |
| RRIRLRPPRLPRPRPRPLCDPRP | -0.284 |
| RRIRQRPPRLPRPRPRPGELPRP | -0.091 |
| RRIRDRPPRLPRPRPRPCWEPRP | 0.28 |
| RRIRARPPRLPRPRPRPVSVPRP | 0.137 |
| RRIRNRPPRLPRPRPRPFPVPRP | -0.125 |
| RRIRARPPRLPRPRPRPTVFPRP | 0.0832 |
| RRIRMRPPRLPRPRPRPFCVPRP | 0.00978 |
| RRIRDRPPRLPRPRPRPTFQPRP | 0.0497 |
| RRIRDRPPRLPRPRPRPQVDPRP | -0.0156 |
| RRIRKRPPRLPRPRPRPQARPRP | -0.0213 |
| RRIRSRPPRLPRPRPRPLWYPRP | -0.327 |
| RRIRKRPPRLPRPRPRPKLKPRP | 0.585 |
| RRIRERPPRLPRPRPRPGSFPRP | 0.0492 |
| RRIRCRPPRLPRPRPRPTLAPRP | 0.645 |
| RRIRQRPPRLPRPRPRPLKPPRP | 0.0722 |
| RRIRNRPPRLPRPRPRPLIKPRP | -0.651 |
| RRIRQRPPRLPRPRPRPPHGPRP | 1.06 |

| Sequence | shrunken log2 fold change |
| --- | --- |
| RRIRHRPPRLPRPRPRPEQGPRP | 0.0631 |
| RRIRRRPPRLPRPRPRPPEMPRP | 0.66 |
| RRIRHRPPRLPRPRPRPGGHPRP | 0.125 |
| RRIRFRPPRLPRPRPRPPQMPRP | 0.333 |
| RRIRARPPRLPRPRPRPNKFPRP | -0.3 |
| RRIRHRPPRLPRPRPRPYRLPRP | -0.302 |
| RRIRFRPPRLPRPRPRPGHLPRP | -0.459 |
| RRIRARPPRLPRPRPRPGENPRP | 0.687 |
| RRIRRRPPRLPRPRPRPKVAPRP | 0.0861 |
| RRIRSRPPRLPRPRPRPVRYPRP | 0.0544 |
| RRIRGRPPRLPRPRPRPATQPRP | 0.631 |
| RRIRFRPPRLPRPRPRPCYMPRP | 1.54 |
| RRIRYRPPRLPRPRPRPEVRPRP | -0.187 |
| RRIRWRPPRLPRPRPRPGRMPRP | 0.000663 |
| RRIRKRPPRLPRPRPRPNAWPRP | 0.0867 |
| RRIRQRPPRLPRPRPRPTITPRP | -0.273 |
| RRIRERPPRLPRPRPRPAPHPRP | 0.704 |
| RRIRWRPPRLPRPRPRPKGIPRP | -0.0761 |
| RRIRGRPPRLPRPRPRPMYCPRP | 0.0756 |
| RRIRARPPRLPRPRPRPMTMPRP | 0.245 |
| RRIRCRPPRLPRPRPRPYKIPRP | -0.785 |
| RRIRSRPPRLPRPRPRPYWAPRP | -0.177 |
| RRIRERPPRLPRPRPRPRKCPRP | -0.0265 |
| RRIRARPPRLPRPRPRPKDWPRP | 0.578 |
| RRIRYRPPRLPRPRPRPYHDPRP | -0.386 |

| Sequence | shrunken log2 fold change |
| --- | --- |
| RRIRRRPPRLPRPRPRPHRAPRP | 0.243 |
| RRIRNRPPRLPRPRPRPIPVPRP | 1.22 |
| RRIRFRPPRLPRPRPRPCQEPRP | 0.176 |
| RRIRGRPPRLPRPRPRPDDRPRP | 0.814 |
| RRIRIRPPRLPRPRPRPILKPRP | 0.134 |
| RRIRGRPPRLPRPRPRPDFFPRP | 1.1 |
| RRIRKRPPRLPRPRPRPCVSPRP | -0.376 |
| RRIRIRPPRLPRPRPRPVPMPRP | -0.143 |
| RRIRFRPPRLPRPRPRPHDIPRP | -0.0788 |
| RRIRSRPPRLPRPRPRPWKQPRP | -0.00145 |
| RRIRSRPPRLPRPRPRPKVDPRP | 0.093 |
| RRIRQRPPRLPRPRPRPTSHPRP | 0.0206 |
| RRIRDRPPRLPRPRPRPLFDPRP | 0.393 |
| RRIRARPPRLPRPRPRPRSHPRP | 0.223 |
| RRIRPRPPRLPRPRPRPNIVPRP | -0.342 |
| RRIRRRPPRLPRPRPRPTIAPRP | 0.0702 |
| RRIRQRPPRLPRPRPRPIPVPRP | -0.221 |
| RRIRARPPRLPRPRPRPDDYPRP | -0.0457 |
| RRIRFRPPRLPRPRPRPSAVPRP | -0.119 |
| RRIRHRPPRLPRPRPRPVIAPRP | -0.134 |
| RRIRARPPRLPRPRPRPSRYPRP | 0.0768 |
| RRIRKRPPRLPRPRPRPLVPPRP | 0.516 |
| RRIRMRPPRLPRPRPRPSFKPRP | -0.0765 |
| RRIRQRPPRLPRPRPRPHPAPRP | -0.114 |
| RRIRRRPPRLPRPRPRPKQQPRP | 0.0775 |

| Sequence | shrunken log2 fold change |
| --- | --- |
| RRIRPRPPRLPRPRPRPFNDPRP | 0.0502 |
| RRIRHRPPRLPRPRPRPWPDPRP | -0.0062 |
| RRIRIRPPRLPRPRPRPWRLPRP | -0.0935 |
| RRIRPRPPRLPRPRPRPPMIPRP | -0.425 |
| RRIRLRPPRLPRPRPRPFSAPRP | -0.177 |
| RRIRSRPPRLPRPRPRPTFQPRP | 0.0282 |
| RRIRKRPPRLPRPRPRPLEEPRP | 1.76 |
| RRIRIRPPRLPRPRPRPQLPPRP | -0.0273 |
| RRIRKRPPRLPRPRPRPLVGPRP | 0.0773 |
| RRIRDRPPRLPRPRPRPTDEPRP | 0.0606 |
| RRIRKRPPRLPRPRPRPFNGPRP | -0.407 |
| RRIRVRPPRLPRPRPRPHVHPRP | -0.45 |
| RRIRMRPPRLPRPRPRPFTFPRP | -0.096 |
| RRIRRRPPRLPRPRPRPWEAPRP | 0.155 |
| RRIRIRPPRLPRPRPRPSPCPRP | -0.761 |
| RRIRLRPPRLPRPRPRPLLEPRP | -0.0263 |
| RRIRSRPPRLPRPRPRPNSYPRP | -0.00251 |
| RRIRVRPPRLPRPRPRPDCYPRP | -0.15 |
| RRIRCRPPRLPRPRPRPKWHPRP | -0.169 |
| RRIRLRPPRLPRPRPRPSGFPRP | -0.259 |
| RRIRFRPPRLPRPRPRPRCTPRP | 0.0551 |
| RRIRMRPPRLPRPRPRPLNRPRP | 0.0437 |
| RRIRLRPPRLPRPRPRPQQPPRP | -0.208 |
| RRIRCRPPRLPRPRPRPPFMPRP | 0.114 |
| RRIRGRPPRLPRPRPRPCKDPRP | -0.0805 |

Reference: the supplement of paper PMC9112550, “Optimization of the antimicrobial peptide Bac7 by deep mutational scanning” (BMC Biology, 2022)
